The target in assay [1] is T1, recombinant human PCSK9-his6 (AcroBiosystems, Catalog # PC9-H5223) (human, UniProt Q8NBP7 31-692).
T1 construct: Bought reagent; also called PCSK9-his6 antigen; PCSK9-his 6 antigen; not shown: his6 tag
The assay is described as follows: PCSK9 antigen binding ELISA, fusion protein immobilized, PCSK9-his6 in solution, HRP anti-his6 detection. (In general: In an ELISA, binding on a coated surface is turned into a signal by an enzyme label.)

The target in assay [2] is T2, human CD40 ligand (CD40L, CD154) expressed on human Jurkat cells (human, UniProt P29965 1-261).
T2 construct: whole, on cells; also called CD40L on Jurkat cells; CD154 (CD40L) expressed on the surface of Jurkat cells
T2 sequence (looked up): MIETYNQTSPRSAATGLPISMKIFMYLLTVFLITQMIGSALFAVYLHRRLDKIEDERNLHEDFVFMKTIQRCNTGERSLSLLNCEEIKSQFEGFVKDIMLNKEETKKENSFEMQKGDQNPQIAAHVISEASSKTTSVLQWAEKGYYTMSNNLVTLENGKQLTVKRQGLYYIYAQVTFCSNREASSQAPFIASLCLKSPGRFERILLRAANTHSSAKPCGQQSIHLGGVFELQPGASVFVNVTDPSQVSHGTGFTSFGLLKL
The experiment in a line: flow cytometry, serial dilutions of purified fusion protein on Jurkat cells, AF647 goat anti-human IgG detection. In general terms: In flow cytometry, cells or beads pass a laser one at a time.

For assay [3], the target named is T3, recombinant human CD40L (Peprotech, Catalog #310-02) (human, UniProt P29965 113-261).
T3 construct: Bought reagent; also called rCD40L; immobilized CD40L
T3 sequence (looked up): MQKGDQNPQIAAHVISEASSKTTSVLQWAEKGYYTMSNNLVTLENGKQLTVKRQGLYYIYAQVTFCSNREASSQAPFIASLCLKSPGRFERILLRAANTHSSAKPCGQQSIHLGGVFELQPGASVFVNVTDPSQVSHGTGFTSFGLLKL
The assay is described as follows: CD40L antigen binding ELISA normalised to IgG sandwich ELISA, COS supernatants. Here is the method:
Coated plates were washed twice in wash buffer: (PBS/0.05% Tween-20/0.01% Kathon), and blocked overnight at 4° C. in 200 ul/well PBS/2.5% BSA. Blocked plates were washed three times in wash buffer, and serial dilutions of each culture supernatant in (D-PBS, 0.2% BSA) added to successive wells in each plate: (20×, 40×, 80×, and 160× of each supernatant). Supernatant dilutions were incubated overnight at 4° C. Plates were washed three times in wash buffer, then incubated with HRP (horseradish peroxidase) conjugated goat anti-human IgG (Fc specific) (Catalog #109-036-008, Jackson Immunoresearch, West Grove, Pa.) at a 1:7,500 dilution in PBS for 1-2 hours at room temperature. Plates were washed 4-5 times in wash buffer, then 80 ul/well TMB Sureblue peroxidase substrate was added (Catalog #52-00-02, KPL Laboratories, Gaithersburg, Md.). Color was allowed to develop for 5-15 minutes, and reactions stopped by addition of 80 ul/well 1 N HCL. Plates were read using a Biotek SYNERGY® 2 (Biotek Instruments, Winooski, Vt.) plate reader at […], and data analyzed with Gen5 v2 software.

T1 sequence (Q8NBP7 31-692 limits assumed): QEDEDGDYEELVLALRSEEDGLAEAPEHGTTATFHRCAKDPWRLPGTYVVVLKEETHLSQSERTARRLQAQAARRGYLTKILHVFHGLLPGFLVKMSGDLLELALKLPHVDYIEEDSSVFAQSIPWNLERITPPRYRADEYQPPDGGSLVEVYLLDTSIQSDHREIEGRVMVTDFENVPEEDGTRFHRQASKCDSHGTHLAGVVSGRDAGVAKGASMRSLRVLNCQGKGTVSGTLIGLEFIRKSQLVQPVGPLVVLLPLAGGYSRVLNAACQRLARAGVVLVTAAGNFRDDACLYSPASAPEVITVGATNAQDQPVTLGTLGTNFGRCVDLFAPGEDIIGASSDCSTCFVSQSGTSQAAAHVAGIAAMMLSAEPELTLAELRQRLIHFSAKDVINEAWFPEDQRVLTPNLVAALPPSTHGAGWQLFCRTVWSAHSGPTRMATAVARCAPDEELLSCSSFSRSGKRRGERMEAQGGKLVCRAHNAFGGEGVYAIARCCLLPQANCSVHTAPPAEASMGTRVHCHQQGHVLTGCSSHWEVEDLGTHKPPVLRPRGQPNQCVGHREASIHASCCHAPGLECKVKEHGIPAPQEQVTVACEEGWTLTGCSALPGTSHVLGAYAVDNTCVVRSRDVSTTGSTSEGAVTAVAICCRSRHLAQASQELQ

B1: hCD40-4s EC-mthIgG (Fc fusion)
chain: EPPTACREKQYLINSQCCSLCQPGQKLVSDCTEFTETECLPCGESEFLDTWNRETHCHQHKYCDPNLGLRVQQKGTSETDTICTCEEGWHCTSEACESCVLHRSCSPGFGVKQIATGVSDTICEPCPVGFFSNVSSAFEKCHPWTSCETKDLVVQQAGTNKTDVVCGPDLSGGGGSGGGGSGGGGSGGGGSTGLEPKSSDKTHTSPPSPAPELLGGSSVFLFPPKPKDTLMISRTPEVTCVVVDVSHEDPEVKFNWYVDGVEVHNAKTKPREEQYNSTYRVVSVLTVLHQDWLNGKEYKCKVSNKALPASIEKTISKAKGQPREPQVYTLPPSRDELTKNQVSLTCLVKGFYPSDIAVEWESNGQPENNYKTTPPVLDSDGSFFLYSKLTVDKSRWQQGNVFSCSVMHEALHNHYTQKSLSLSPGK
notes: also called human (h)CD40-SSSH-mthIgG1; hCD40mthIgG
B1: the binding result is “no binding” in assay [1] and “binds” in assay [2].

B2: CD40 EC-Ig fusion protein, mutant E64S K81H L121P (Fc fusion)
chain: EPPTACREKQYLINSQCCSLCQPGQKLVSDCTEFTETECLPCGSSEFLDTWNRETHCHQHHYCDPNLGLRVQQKGTSETDTICTCEEGWHCTSEACESCVPHRSCSPGFGVKQIATGVSDTICEPCPVGFFSNVSSAFEKCHPWTSCETKDLVVQQAGTNKTDVVCGP
notes: COS7 culture supernatant; not shown: human IgG Fc tail
In the case of B2, the binding result in assay [3] is on record as “binds”.

B3: CD40 EC-Ig fusion protein, mutant E64Y K81T P85Y (Fc fusion)
chain: EPPTACREKQYLINSQCCSLCQPGQKLVSDCTEFTETECLPCGYSEFLDTWNRETHCHQHTYCDYNLGLRVQQKGTSETDTICTCEEGWHCTSEACESCVLHRSCSPGFGVKQIATGVSDTICEPCPVGFFSNVSSAFEKCHPWTSCETKDLVVQQAGTNKTDVVCGP
notes: COS7 culture supernatant; also called triple mutant E64Y K81T P85Y; not shown: human IgG Fc tail
For the molecule B3, the binding result in assay [3] is on record as “binds”.

These data come from patent publication US20140120091A1 (University of Washington, published 2014).
